Assay results published in patent US20200095340A1.
Changes are numbered by the printed parent chain.

B1: anti-DLL3 trispecific protein, DLL3 binder 4A01 (protein, part only; not given: CD3 binder and albumin binder, part only)
chain, part: EVQLVESGGGLVQPGGSLTLSCAASGSSVRFLSMAWYRQAPGKKRELVAGISQDGSTDYIDSVKGRFTISRDNAKNSVYLQMNSLRAEDTAVYYCYAYRWRTRYTYWGQGTLVTVSSGGGGSGGGSGGGGSGGGSHHHHHH
B2: anti-DLL3 trispecific protein, DLL3 binder 3D01 (protein, part only; not given: CD3 binder and albumin binder, part only)
chain, part: B1 chain, part with R30S, Q53R, R101I
B3: anti-DLL3 trispecific protein, DLL3 binder 3B01 (protein, part only; not given: anti-CD3 fragment and anti-albumin sdAb, part only)
chain, part: B1 chain, part with R30S, Q53G, R101T
B4: anti-DLL3 trispecific protein, DLL3 binder 3F06 (protein, part only; not given: anti-CD3 fragment and anti-albumin sdAb, part only)
chain, part: B1 chain, part with S28R, R30S, Q53A, D58S, R101A
B5: anti-DLL3 trispecific protein, DLL3 binder 2B01 (protein, part only; not given: CD3 fragment and albumin sdAb, part only)
chain, part: EVQLVESGGGLVQPGGSLTLSCVASGSTSLINAMGWYRRAPGKQRELVAGISSDGSKVYADSVKGRFTISRDNAKNSVYLQMNSLRAEDTAVYYCYYFRHVSGSSMRYWGQGTLVTVSSGGGGSGGGSGGGGSGGGSHHHHHH
B6: anti-DLL3 trispecific protein, DLL3 binder 1D08 (protein, part only; not given: CD3 binder and albumin binder, part only)
chain, part: B5 chain, part with S27L, L30S, H100M
B7: anti-DLL3 trispecific protein, DLL3 binder 2B010 (protein, part only; not given: CD3 fragment and albumin sdAb, part only)
chain, part: B5 chain, part with L30S, I31R, V58L, A60L, H100T, S102L
B8: anti-DLL3 trispecific protein 3H010 (protein, part only; not given: anti-CD3 and anti-albumin domains, part only)
chain, part: B1 chain, part with R30S, Q53A, D58A, R101T, Y104R
B9: anti-DLL3 trispecific protein 4G09 (protein, part only; not given: anti-CD3 fragment and anti-albumin domain, part only)
chain, part: B1 chain, part with S28R, R30S, Q53Y, R101T, Y104R
B10: anti-DLL3 trispecific protein 4G05 (protein, part only; not given: CD3 fragment and albumin sdAb, part only)
chain, part: B1 chain, part with R30S, F31I, Q53A, D58I, R101H
B11: anti-DLL3 trispecific protein 4G010 (protein, part only; not given: anti-CD3 and anti-albumin domains, part only)
chain, part: B1 chain, part with S27H, R30S, Q53A, D61A, R101S
B12: anti-DLL3 trispecific protein 3A04 (protein, part only; not given: CD3 binder and albumin binder, part only)
chain, part: B1 chain, part with S28Q, R30S, Q53R, R101T, T105I
B13: anti-DLL3 trispecific protein 4E09 (protein, part only; not given: anti-CD3 fragment and anti-albumin sdAb, part only)
chain, part: B1 chain, part with R30S, M34S, Q53A, D58L, R101T, Y104S
B14: anti-DLL3 trispecific protein 3C02 (protein, part only; not given: anti-CD3 and anti-albumin domains, part only)
chain, part: B1 chain, part with Q53A, D58I
B15: anti-DLL3 trispecific protein 4A07 (protein, part only; not given: CD3 binder and albumin binder, part only)
chain, part: B1 chain, part with S28K, R30S, Q53A, D58L, R101T, T105R
B16: anti-DLL3 trispecific protein 3H03 (protein, part only; not given: anti-CD3 fragment and anti-albumin domain, part only)
chain, part: B1 chain, part with Q53T, Y98L, R101T
B17: anti-DLL3 trispecific protein 3H01 (protein, part only; not given: CD3 binder and albumin binder, part only)
chain, part: B1 chain, part with A23V, R30K, Q53G, D58T, R101T, Y104R
B18: anti-DLL3 trispecific protein 4E010 (protein, part only; not given: anti-CD3 and anti-albumin domains, part only)
chain, part: B1 chain, part with R30K, Q53A
B19: anti-DLL3 trispecific protein 4H08 (protein, part only; not given: anti-CD3 fragment and anti-albumin sdAb, part only)
chain, part: B1 chain, part with R30K, Q53A, I60V, R101S
B20: anti-DLL3 trispecific protein 4A05 (protein, part only; not given: anti-CD3 and anti-albumin domains, part only)
chain, part: B1 chain, part with R30S, M34L, Q53A, R101K, Y104R
B21: anti-DLL3 trispecific protein 4A09 (protein, part only; not given: anti-CD3 and anti-albumin domains, part only)
chain, part: B1 chain, part with R30K, Q53A, D61G, R101T, Y104V
B22: anti-DLL3 trispecific protein 4F08 (protein, part only; not given: anti-CD3 and anti-albumin domains, part only)
chain, part: B1 chain, part with S28K, R30S, Q53A, D58A
B23: anti-DLL3 trispecific protein 3G04 (protein, part only; not given: CD3 binder and albumin binder, part only)
chain, part: B1 chain, part with A23V, S27T, R30S, Q53A, D58I, R101T, Y104R
B24: anti-DLL3 trispecific protein 4A02 (protein, part only; not given: anti-CD3 fragment and anti-albumin domain, part only)
chain, part: B1 chain, part with Q53N, R101K
B25: anti-DLL3 trispecific protein 4D010 (protein, part only; not given: anti-CD3 fragment and anti-albumin sdAb, part only)
chain, part: B1 chain, part with R30S, Q53A, D61H
B26: anti-DLL3 trispecific protein 4F09 (protein, part only; not given: anti-CD3 and anti-albumin domains, part only)
chain, part: B1 chain, part with S28R, R30S, Q53A, D61E, R101T
B27: anti-DLL3 trispecific protein 4F04 (protein, part only; not given: anti-CD3 fragment and anti-albumin sdAb, part only)
chain, part: B1 chain, part with G26R, R30S, Q53T, R101L
B28: anti-DLL3 trispecific protein 4D04 (protein, part only; not given: anti-CD3 fragment and anti-albumin sdAb, part only)
chain, part: B1 chain, part with R30S, M34I, Q53K, R101T, Y104M
B29: anti-DLL3 trispecific protein 3B011 (protein, part only; not given: anti-CD3 and anti-albumin domains, part only)
chain, part: B1 chain, part with R30S, Q53A, T57A, R101V
B30: anti-DLL3 trispecific protein 2D05 (protein, part only; not given: anti-CD3 fragment and anti-albumin domain, part only)
chain, part: B5 chain, part with L30R, H100T, V101A
B31: anti-DLL3 trispecific protein 2E09 (protein, part only; not given: anti-CD3 and anti-albumin domains, part only)
chain, part: B5 chain, part with T28V, L30S, D61S, V63A, H100T, V101L
B32: anti-DLL3 trispecific protein 1F06 (protein, part only; not given: anti-CD3 and anti-albumin domains, part only)
chain, part: B5 chain, part with S27T, L30S, Y59I, H100T, S102L
B33: anti-DLL3 trispecific protein 1B03 (protein, part only; not given: anti-CD3 and anti-albumin domains, part only)
chain, part: B5 chain, part with S27K, L30S, G35A, A60T, H100T, M106A
B34: anti-DLL3 trispecific protein 1D012 (protein, part only; not given: anti-CD3 fragment and anti-albumin domain, part only)
chain, part: B5 chain, part with L30H, K57R, H100T, S104G
B35: anti-DLL3 trispecific protein 1C012 (protein, part only; not given: anti-CD3 and anti-albumin domains, part only)
chain, part: B5 chain, part with S27I, L30S, D61G, H100T, S102R
B36: anti-DLL3 trispecific protein 1H010 (protein, part only; not given: anti-CD3 fragment and anti-albumin sdAb, part only)
chain, part: B5 chain, part with S29R, L30S, A60N, H100T, Y108F
B37: anti-DLL3 trispecific protein 1B07 (protein, part only; not given: anti-CD3 and anti-albumin domains, part only)
chain, part: B5 chain, part with T28G, L30S, A60S
B38: anti-DLL3 trispecific protein 1F01 (protein, part only; not given: CD3 fragment and albumin sdAb, part only)
chain, part: B5 chain, part with L30S, A60G, H100T, G103R
B39: anti-DLL3 trispecific protein 2A05 (protein, part only; not given: CD3 fragment and albumin sdAb, part only)
chain, part: B5 chain, part with S27R, L30S, A60N, H100T, S104T
B40: anti-DLL3 trispecific protein 2F01 (protein, part only; not given: anti-CD3 and anti-albumin domains, part only)
chain, part: B5 chain, part with L30S, A60S, H100L
B41: anti-DLL3 trispecific protein 1E08 (protein, part only; not given: anti-CD3 fragment and anti-albumin sdAb, part only)
chain, part: B5 chain, part with S27K, L30S, Y59I, H100T, S102L
B42: anti-DLL3 trispecific protein 2F02 (protein, part only; not given: anti-CD3 fragment and anti-albumin sdAb, part only)
chain, part: B5 chain, part with L30S, M34V, D61G, H100T, S105Y
B43: anti-DLL3 trispecific protein 2A06 (protein, part only; not given: CD3 binder and albumin binder, part only)
chain, part: B5 chain, part with L30S, I31R, Y59T, H100T, V101R
B44: anti-DLL3 trispecific protein 1A07 (protein, part only; not given: anti-CD3 fragment and anti-albumin domain, part only)
chain, part: B5 chain, part with T28I, L30S, H100M
B45: anti-DLL3 trispecific protein 1G07 (protein, part only; not given: anti-CD3 and anti-albumin domains, part only)
chain, part: B5 chain, part with L30S, Y59V, H100T, V101Y
B46: anti-DLL3 trispecific protein 1D04 (protein, part only; not given: CD3 fragment and albumin sdAb, part only)
chain, part: B5 chain, part with L30S, I31K, H100T, S104A

Target: biotinylated human DLL3 protein expressed as a human IgG1 fusion protein (human) (UniProt Q9NYJ7)
Test: Octet, biotinylated human DLL3-IgG1 fusion on streptavidin tips, single 50 nM, conditioned medium (relative KD)
Target sequence in this assay (Q9NYJ7 27-492): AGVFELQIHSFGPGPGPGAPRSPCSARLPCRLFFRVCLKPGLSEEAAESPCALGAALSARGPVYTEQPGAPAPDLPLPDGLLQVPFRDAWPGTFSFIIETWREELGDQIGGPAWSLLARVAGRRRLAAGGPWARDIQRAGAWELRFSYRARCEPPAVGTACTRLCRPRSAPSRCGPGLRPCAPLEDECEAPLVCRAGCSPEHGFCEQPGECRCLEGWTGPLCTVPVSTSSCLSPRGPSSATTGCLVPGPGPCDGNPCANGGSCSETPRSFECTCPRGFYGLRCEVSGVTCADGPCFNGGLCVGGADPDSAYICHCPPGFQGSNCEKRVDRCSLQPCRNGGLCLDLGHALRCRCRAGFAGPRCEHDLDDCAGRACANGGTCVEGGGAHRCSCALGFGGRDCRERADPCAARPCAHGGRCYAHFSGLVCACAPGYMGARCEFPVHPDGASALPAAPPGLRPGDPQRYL

Row | Kd [nM] | Binder
1 | 10 | B1
2 | 10 | B2
3 | 10 | B3
4 | 9.9 | B4
5 | 10 | B5
6 | 10 | B6
7 | 10 | B7

Target: biotinylated human DLL3 protein expressed as a human IgG1 fusion protein (human) (UniProt Q9NYJ7)
Test: Octet BLI; biotinylated huDLL3-IgG1 fusion on streptavidin tips; single 50 nM; conditioned medium
Target sequence in this assay (Q9NYJ7 other isoform, or with tags, fused parts or gaps): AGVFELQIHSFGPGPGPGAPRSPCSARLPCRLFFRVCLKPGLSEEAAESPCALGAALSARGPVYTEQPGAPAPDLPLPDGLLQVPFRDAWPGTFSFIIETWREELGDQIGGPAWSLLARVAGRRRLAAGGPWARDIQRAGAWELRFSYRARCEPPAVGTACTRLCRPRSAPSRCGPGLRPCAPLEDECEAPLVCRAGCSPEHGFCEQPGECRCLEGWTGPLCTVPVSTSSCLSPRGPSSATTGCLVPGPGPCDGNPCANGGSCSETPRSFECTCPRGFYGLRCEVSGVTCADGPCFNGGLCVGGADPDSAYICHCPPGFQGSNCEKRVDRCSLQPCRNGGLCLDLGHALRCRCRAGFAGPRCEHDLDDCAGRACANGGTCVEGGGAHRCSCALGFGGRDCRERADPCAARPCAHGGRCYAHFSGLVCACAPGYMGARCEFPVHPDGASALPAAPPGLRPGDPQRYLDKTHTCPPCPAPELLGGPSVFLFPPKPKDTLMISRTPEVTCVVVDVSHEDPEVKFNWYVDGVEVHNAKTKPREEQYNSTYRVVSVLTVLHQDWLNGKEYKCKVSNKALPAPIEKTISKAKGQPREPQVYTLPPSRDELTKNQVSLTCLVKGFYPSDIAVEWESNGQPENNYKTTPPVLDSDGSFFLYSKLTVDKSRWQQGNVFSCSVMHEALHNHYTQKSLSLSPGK

Row | Kd [nM] | Binder
8 | 8.6 | B8
9 | 8.8 | B9
10 | 9.7 | B10
11 | 9.9 | B11
12 | 9.2 | B12
13 | 9.1 | B13
14 | 9.1 | B14
15 | 9.8 | B15
16 | 9.9 | B16
17 | 9 | B17
18 | 9 | B18
19 | 8.9 | B19
20 | 9.4 | B20
21 | 9 | B21
22 | 9 | B22
23 | 8.8 | B23
24 | 9 | B24
25 | 9.9 | B25
26 | 8.8 | B26
27 | 9.8 | B27

Row | Kd [nM] | Binder
28 | 8.6 | B28
29 | 9 | B29
30 | 8.3 | B30
31 | 8.5 | B31
32 | 8.9 | B32
33 | 8.7 | B33
34 | 9.3 | B34
35 | 8.5 | B35
36 | 8.4 | B36
37 | 8.9 | B37
38 | 9.4 | B38
39 | 8.9 | B39
40 | 9.2 | B40
41 | 9.4 | B41
42 | 9.6 | B42
43 | 8.9 | B43
44 | 8.6 | B44
45 | 8.3 | B45
46 | 9.7 | B46
